# Assay results as given in patent publication US20090131331A1 (DSM IP ASSETS B V, published 2009).
# B1: tripeptide Methionine-Alanine-Proline (Met-Ala-Pro) (peptide)
# peptide: MAP
# B2: tripeptide Isoleucine-Threonine-Proline (Ile-Thr-Pro) (peptide)
# peptide: ITP
# B3: tripeptide IPP (peptide)
# peptide: IPP
# What was measured:
# [1] = target: angiotensin I converting enzyme (ACE); assay: cell-based or functional assay
# [2] = target: angiotensin I converting enzyme (ACE); assay: cell-based or functional assay; remark: listed apart in the source
Binder,IC50 value in the Modified Matsui test (ACE inhibition) [1] [µM],"ACE inhibition (IC50 value), at-line ACE assay (cleavage of HHL) [2] [µM]","ACE inhibition (IC50 value), modified Matsui assay (cleavage of Hip-His-Leu) [2] [µM]"
B1,0.5,3.8,0.4
B2,,50,10
B3,,7.1,2
